Data published in US20140030270A1 (Amgen, published 2014).

How the values were obtained:
human PCSK9 D374Y mutant = human PCSK9 D374Y mutant (human, UniProt Q8NBP7 31-692, biotinylated in the LDLR binding ELISAs (sites not given)); assay: cell-based or functional assay
human PCSK9 (wild-type) = human PCSK9 (wild-type) (human, UniProt Q8NBP7 31-692, biotinylated in the ELISA formats (sites not given); untagged and unlabelled in Biacore/KinExA); assay: cell-based or functional assay

EC50, block of D374Y PCSK9-mediated decrease of LDL uptake in HepG2 cells (BODIPY-LDL) (human PCSK9 D374Y mutant): 35.3 nM | EC50, block of WT PCSK9-mediated decrease in LDL uptake in HepG2 cells (BODIPY-LDL) (human PCSK9 (wild-type)): 124 nM
B1: 11F1 anti-PCSK9 antibody (antibody, V domains shown)
VH: EVQLVESGGGLVQPGGSLRLSCAASGFTFSNYWMSWVRQAPGKGLEWVASIKQDGSEKYYVDSVKGRFAISRDNAKNSLFLQMNSLRAEDTAVYYCARDLVLMVYDIDYYYYGMDVWGQGTTVTVSS
VL: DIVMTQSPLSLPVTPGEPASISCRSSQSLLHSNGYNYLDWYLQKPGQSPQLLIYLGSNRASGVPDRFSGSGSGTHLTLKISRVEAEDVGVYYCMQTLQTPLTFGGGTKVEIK
